Measurements reported in patent publication US20260008852A1.

B1: 40633p1.2.C11 (scFv, V domains shown)
VH: EVQLLESGGGLVQPGGSLRLSCAASGFTFSSYWMSWVRQAPGKGLEWVAGINRNGGSTYYADSVKGRFTISRDNSENTLYLQVNSLRAEDTAVYYCARWNDYDIMDVWGQGTTVTVSS
VL: QSVLTQPSSASGTPGQRVTISCSGSSSNVGRRAVNWYQQLPGTAPKLLISNSQRPSGVPDRFSGSKSGTSASLAISGLQSEDEADYYCATWDASLNSWVFGGGTKLTVL
B2: 40579p1.H11 (scFv, V domains shown)
VH: EVQLLESGGGLVQPGGSLRLSCAASGFTFDDYGMSWVRQAPGKGLEWVSAIRSKASSYATYYADSVKGRFTVSRDNSENTLYLQMNSLRAEDTAVYYCAKHRSNYYFMDVWGQGTTVTVSS
VL: EIVLTQSPGTLSLSPGERATLSCRASQSVGSDLAWYQQRPGQAPRLLIYAASSRATDIPDRFSGSGSGTDFTLTISSLQSEDFAVYYCQQYYSWPPLTFGGGTKVEIK

Assays:
[1] = biological target: His-tagged human B7-H3 (human) (UniProt Q5ZPR3); experiment: ELISA OD450 on hu B7-H3 over OD450 on mu B7-H3
His-tagged human B7-H3 (human), sequence (Q5ZPR3 other isoform, or with tags, fused parts or gaps limits assumed): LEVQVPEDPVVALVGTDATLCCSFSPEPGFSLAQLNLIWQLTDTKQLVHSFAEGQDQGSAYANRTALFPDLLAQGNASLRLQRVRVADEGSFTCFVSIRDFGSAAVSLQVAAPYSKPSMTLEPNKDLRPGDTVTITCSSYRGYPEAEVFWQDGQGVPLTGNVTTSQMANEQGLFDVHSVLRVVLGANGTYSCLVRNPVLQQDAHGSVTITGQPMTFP

[2] = biological target: His-tagged human B7-H3 (human) (UniProt Q5ZPR3); experiment: ELISA, coated His-tagged antigen, scFv-Fc 1 ug/ml
[3] = biological target: His-tagged mouse B7-H3 (mouse) (UniProt Q8VE98); experiment: ELISA, coated His-tagged antigen, scFv-Fc 1 ug/ml
His-tagged mouse B7-H3 (mouse), sequence (Q8VE98 29-244 limits assumed): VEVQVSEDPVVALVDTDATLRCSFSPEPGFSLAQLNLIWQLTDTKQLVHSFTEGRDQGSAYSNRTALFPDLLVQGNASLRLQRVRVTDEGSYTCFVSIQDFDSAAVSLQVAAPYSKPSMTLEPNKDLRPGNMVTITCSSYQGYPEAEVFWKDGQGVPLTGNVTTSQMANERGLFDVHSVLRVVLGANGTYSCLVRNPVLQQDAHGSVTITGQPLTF

Binder	hu:mu ratio [1]	ELISA OD450 @ 1 ug/ml [2]	ELISA OD450 @ 1 ug/ml [3]
B1	1.09	0.049 OD450	0.045 OD450
B2	1.51	0.077 OD450	
